The term Tm denotes the temperature at which the thermal transition is half complete.

The chains are these.
B1: Alpha-lactalbumin, P00711 (parent)
chain: MMSFVSLLLVGILFHATQAEQLTKCEVFRELKDLKGYGGVSLPEWVCTTFHTSGYDTQAIVQNNDSTEYGLFQINNKIWCKDDQNPHSSNICNISCDKFLDDDLTDDIMCVKKILDKVGINYWLAHKALCSEKLDQWLCEKL

Where “and” joins values, the source holds several entries; their conditions need not be identical. Identical values can stand only once.

The variants in the series derive from B1. As to conditions: Bos taurus; pH 7.4; Thermal; CD; Tris-HCl 20 mM; CaCl2 1 mM; reversible: yes(>95%); structure 1HFZ; whole UniProt chain shown.

Turning to MMSFVSLLLVGILFHATQAEQLTKCEVFRELKDLKGYGGVSLPEWVCTTFHTSGYDTQAIVQNNDSTEYGLFQINNKIWCKDDQNPHSSNICNISCDKFLDDDLTDDIMCVKKILDKVGINYYLAHKALCSEKLDQWLCEKL, the Tm came out at 56.2 °C and the “ddG of mutation (higher = less stable)” value is 2.44 kcal/mol.

As to MMSFVSLLLVGILFHATQAEQLTKCEVFRELKDLKGYGGVSLPEWVCTTFHTSGYDTQAINQNNDSTEYGLFQINNKIWCKDDQNPHSSNICNISCDKFLDDDLTDDIMCVKKILDKVGINYWLAHKALCSEKLDQWLCEKL, the Tm was 55.1 °C; the “change of melting temperature, mutant - wild type (higher = more stable)” value (“change of melting temperature, mutant” below) was -1.1 °C; the “unfolding enthalpy (van 't Hoff)” value came out at 67.2 kcal/mol.

In the case of MMSFVSLLLVGILFHATQAEQLTKCEVFRELKDLKGYGGVSLPEWVCTTFHTSGYDTQAIAQNNDSTEYGLFQINNKIWCKDDQNPHSSNICNISCDKFLDDDLTDDIMCVKKILDKVGINYWLAHKALCSEKLDQWLCEKL, the Tm is 51.7 °C and 56.2 °C; the “change of melting temperature, mutant” value was -4.5 °C; the “ddG of mutation (higher = less stable)” value amounted to 0.93 kcal/mol; the “unfolding enthalpy (van 't Hoff)” value turned out to be 64.3 kcal/mol.

On to MMSFVSLLLVGILFHATQAEQLTKCEVFRELKDLKGYGGVSLPEWVCTTFHTSGYDTQAIGQNNDSTEYGLFQINNKIWCKDDQNPHSSNICNISCDKFLDDDLTDDIMCVKKILDKVGINYWLAHKALCSEKLDQWLCEKL, for which the “change of melting temperature, mutant” value was -5.2 °C; the “ddG of mutation (higher = less stable)” value stood at 1.15 kcal/mol; the “unfolding enthalpy (van 't Hoff)” value is 68.6 kcal/mol.

Take MMSFVSLLLVGILFHATQAEQLTKCEVFRELKDLKGYGGVSLPEWVCTTFHTSGYDTQAIVQNNDSTEYGLFQINNKIWCKDDQNPHSSNICNISCDKFLDDDLTDDIMCVKKILDKVGINYWLAHKAHCSEKLDQWLCEKL: the “change of melting temperature, mutant” value was 6.3 °C; the “ddG of mutation (higher = less stable)” value was -1.39 kcal/mol; the “unfolding enthalpy (van 't Hoff)” value turned out to be 77.4 kcal/mol.

Regarding MMSFVSLLLVGILFHATQAEQLTKCEVFRELKDLKGYGGVSLPEWVCTTFHTSGYDTQAIVQNNDSTEYGLFQINNKIWCKDDQNPHSSNICNISCDKFLDDDLTDDIMCVKKILDKVGINYWLAHKAECSEKLDQWLCEKL, the Tm was 55.1 °C and 56.2 °C; the “change of melting temperature, mutant” value is -1.1 °C; the “ddG of mutation (higher = less stable)” value turned out to be 0.19 kcal/mol; the “unfolding enthalpy (van 't Hoff)” value was 58.6 kcal/mol.

With MMSFVSLLLVGILFHATQAEQLTKCEVFRELKDLKGYGGVSLPEWVCTTFHTSGYDTQAIVQNNDSTEYGLFQINNKIWCKDDQNPHSSNICNISCDKFLDDDLTDDIMCVKKILDKVGINYWLAHKARCSEKLDQWLCEKL, the Tm is 58.1 °C and 56.2 °C; the “change of melting temperature, mutant” value came out at 1.9 °C; the “ddG of mutation (higher = less stable)” value was -0.43 kcal/mol; the “unfolding enthalpy (van 't Hoff)” value is 76.5 kcal/mol.

Turning to MMSFVSLLLVGILFHATQAEQLTKCEVFRELKDLKGYGGVSLPEWVCTTFHTSGYDTQAIVQNNDSTEYGLFQINNKWWCKDDQNPHSSNICNISCDKFLDDDLTDDIMCVKKILDKVGINYWLAHKALCSEKLDQWLCEKL, the Tm was 51.7 °C and 56.2 °C; the “change of melting temperature, mutant” value is -4.5 °C; the “ddG of mutation (higher = less stable)” value worked out at 0.93 kcal/mol; the “unfolding enthalpy (van 't Hoff)” value is 65 kcal/mol.

As for MMSFVSLLLVGILFHATQAEQLTKCEVFRELKDLKGYGGVSLPEWVCTTFHTSGYDTQAIVQNNDSTEYGLFQINNKIWCKDDQNPHSSNICNISCDKFLDDDLTDDIMCVKKILDKVGINYWLAAKALCSEKLDQWLCEKL, the midpoint of thermal melting (Tm) is 52.1 °C and 56.2 °C; the “change of melting temperature, mutant” value is -4.1 °C; the “ddG of mutation (higher = less stable)” value was 0.79 kcal/mol; the “unfolding enthalpy (van 't Hoff)” value was 60.5 kcal/mol.

With MMSFVSLLLVGILFHATQAEQLTKCEVFRELKDLKGYGGVSLPEWVCTTFHTSGYDTQAIVQNNDSTEYGLFQINNKIWCKDDQNPHSSNICNISCDKFLDDDLTDDIMCVKKILDKVGINYWLAYKALCSEKLDQWLCEKL, the Tm is 55.2 °C and 56.2 °C; the “change of melting temperature, mutant” value is -1 °C; the “ddG of mutation (higher = less stable)” value came out at 0.19 kcal/mol; the “unfolding enthalpy (van 't Hoff)” value was 62.9 kcal/mol.

For the variant MMSFVSLLLVGILFHATQAEQLTKCEVFRELKDLKGYGGVSLPEWVCTTFHTSGYDTQAIVQNNDSTEYGLFQINNKIWCKDDQNPHSSNICNISCDKFLDDDLTDDIMCVKKILDKVGINYWLAWKALCSEKLDQWLCEKL, the “change of melting temperature, mutant” value is -8.7 °C; the “ddG of mutation (higher = less stable)” value was 1.72 kcal/mol; the “unfolding enthalpy (van 't Hoff)” value worked out at 57.8 kcal/mol.

Consider MMSFVSLLLVGILFHATQAEQLTKCEVFRELKDLKGYGGVSLPEWVCTTFHTSGYDTQAIVQNNDSTEYGLFQINNKIWCKDDQNPHSSNICNISCDKFLDDDLTDDIMCVKKILDKVGINPWLAHKALCSEKLDQWLCEKL, for which the Tm was 55.1 °C and 56.2 °C; the “change of melting temperature, mutant” value is -1.1 °C; the “ddG of mutation (higher = less stable)” value came out at 0.22 kcal/mol; the “unfolding enthalpy (van 't Hoff)” value was 62.1 kcal/mol.

With MMSFVSLLLVGILFHATQAEQLTKCEVFRELKDLKGYGGVSLPEWVCTTFHTSGYDTQAIVQNNDSTEYGLFQINNKIWCKDDQNPHSSNICNISCDKFLDDDLTDDIMCVKKILDKVGINAWLAHKALCSEKLDQWLCEKL, the “change of melting temperature, mutant” value is -10.7 °C; the “ddG of mutation (higher = less stable)” value came out at 2.39 kcal/mol; the “unfolding enthalpy (van 't Hoff)” value turned out to be 64.3 kcal/mol.

In the case of MMSFVSLLLVGILFHATQAEQLTKCEVFRELKDLKGYGGVSLPEWVCTTFHTSGYDTQAIVQNNDSTEYGLFAINNKIWCKDDQNPHSSNICNISCDKFLDDDLTDDIMCVKKILDKVGINYWLAHKALCSEKLDQWLCEKL, the Tm is 54.3 °C and 56.2 °C; the “change of melting temperature, mutant” value is -1.9 °C; the “ddG of mutation (higher = less stable)” value was 0.41 kcal/mol; the “unfolding enthalpy (van 't Hoff)” value came out at 67.6 kcal/mol.

For the variant MMSFVSLLLVGILFHATQAEQLTKCEVFRELKDLKGYGGVSLPEWVCTTFHTSGYDTQAIVQNNDSTEYGLFQINNKIWCKDDQNPHSSNICNISCDKFLDDDLTDDIMCVKKILDKVGINYWLAHKALCSEKLDQYLCEKL, the “change of melting temperature, mutant” value is -5.4 °C; the “ddG of mutation (higher = less stable)” value stood at 1.17 kcal/mol; the “unfolding enthalpy (van 't Hoff)” value was 67.2 kcal/mol.

Turning to MMSFVSLLLVGILFHATQAEQLTKCEVFRELKDLKGYGGVSLPEWVCTTFHTSGYDTQAIVQNNDSTEYGLFQINNKIWCKDDQNPHSSNICNISCDKFLDDDLTDDIMCVKKILDKVGINYWLAHKALCSEKLDQHLCEKL, the Tm was 52.9 °C and 56.2 °C; the “change of melting temperature, mutant” value was -3.3 °C; the “ddG of mutation (higher = less stable)” value is 0.6 kcal/mol; the “unfolding enthalpy (van 't Hoff)” value is 56.2 kcal/mol.

As to MMSFVSLLLVGILFHATQAEQLTKCEVFRELKDLKGYGGVSLPEWVCTTFYTSGYDTQAIVQNNDSTEYGLFQINNKIWCKDDQNPHSSNICNISCDKFLDDDLTDDIMCVKKILDKVGINYWLAHKALCSEKLDQWLCEKL, the Tm stood at 56.5 °C; the “change of melting temperature, mutant” value came to 0.3 °C; the “unfolding enthalpy (van 't Hoff)” value worked out at 73.6 kcal/mol.

MMSFVSLLLVGILFHATQAEQLTKCEVFRELKDLKGYGGVSLPEWVCTTFATSGYDTQAIVQNNDSTEYGLFQINNKIWCKDDQNPHSSNICNISCDKFLDDDLTDDIMCVKKILDKVGINYWLAHKALCSEKLDQWLCEKL: the “change of melting temperature, mutant” value is -11.6 °C; the “ddG of mutation (higher = less stable)” value was 2.13 kcal/mol; the “unfolding enthalpy (van 't Hoff)” value was 50.4 kcal/mol.

Regarding MMSFVSLLLVGILFHATQAEQLTKCEVFRELKDLKGYGGVSLPEWVCTTFHTSGYDTQAIVQNNDSTEYGLFQINNKIWCKDDQNPHSSNICNISCDKFLDDDLTDDIMCVKKILDKVGINYWLAHKALCSEKLDAWLCEKL, the Tm was 52.1 °C and 56.2 °C; the “change of melting temperature, mutant” value is -4.1 °C; the “ddG of mutation (higher = less stable)” value stood at 0.96 kcal/mol; the “unfolding enthalpy (van 't Hoff)” value came out at 73.4 kcal/mol.

Turning to MMSFVSLLLVGILFHATQAEQLTKCEVFRELKDLKGYGGVSLPEWVCTTFHTSGYDTQAIVQNNDSTEYGLFQINNKIWCKDDQNPHSSNICNISCDKFLDDDLTDDIMCVKKILDKVGINYWLSHKALCSEKLDQWLCEKL, the “change of melting temperature, mutant” value is -6.1 °C; the “ddG of mutation (higher = less stable)” value turned out to be 1.05 kcal/mol; the “unfolding enthalpy (van 't Hoff)” value came out at 51.6 kcal/mol.

With MMSFVSLLLVGILFHATQAEQLTKCEVFRELKDLKGYGGVSLPEWVCTTFHTSGYDTQAIVQNNDSTEYGLFQINNKIWCKDDQNPHSSNICNISCDKFLDDDLTDDIMCVKKILDKVGINYWLAHKALCSEQLDQWLCEKL, the midpoint of thermal melting (Tm) is 53.5 °C and 56.2 °C; the “change of melting temperature, mutant” value is -2.7 °C; the “ddG of mutation (higher = less stable)” value is 0.6 kcal/mol; the “unfolding enthalpy (van 't Hoff)” value amounted to 69.5 kcal/mol.

As for MMSFVSLLLVGILFHATQAEQLTKCEVFRELKDLKGYGGVSLPEWVCTTFHTSGYDTQAIVQNNDSTEYGLFQINNKIWCKDDQNPHSSNICNISCDKFLDDDLTDDIMCVKKILDKVGINYWLAHKALCSEELDQWLCEKL, the Tm worked out at 53 °C; the “change of melting temperature, mutant” value was -3.2 °C; the “unfolding enthalpy (van 't Hoff)” value is 62.9 kcal/mol.

Turning to MMSFVSLLLVGILFHATQAEQLTKCEVFRELKDLKGYGGVSLPEWVCTTFHTSGYDTQAIVQNNDSTEYGLFQINNKIWCKDDQNPHSSNICNISCDKFLDDDLTDDIMCVKKILDKVGINYWLAHKALCSENLDQWLCEKL, the “change of melting temperature, mutant” value came out at 10.7 °C; the “ddG of mutation (higher = less stable)” value was -2.65 kcal/mol; the “unfolding enthalpy (van 't Hoff)” value is 91.3 kcal/mol.

The record behind these values is FireProtDB (doi:10.1093/protein/12.7.581).
